Source: patent publication US20240067748A1 (NONA BIOSCIENCES SUZHOU, published 2024)

T1: human TROP2 protein (Sino Biological, #10428-H08H) (human, UniProt P09758 27-274)
T1 construct: bought protein; also called human Trop2 protein antigen (His tag); not shown: His tag
T1 sequence (looked up): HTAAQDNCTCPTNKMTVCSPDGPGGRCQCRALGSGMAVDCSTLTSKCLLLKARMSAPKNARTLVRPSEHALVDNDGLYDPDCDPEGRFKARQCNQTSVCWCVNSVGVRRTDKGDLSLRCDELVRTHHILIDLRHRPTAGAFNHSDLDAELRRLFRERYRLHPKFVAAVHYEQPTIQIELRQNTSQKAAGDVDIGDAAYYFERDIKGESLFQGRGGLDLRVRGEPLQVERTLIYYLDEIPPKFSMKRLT

T2: monkey Trop2 protein (Sino Biological, #90893-C08H) (monkey, UniProt A0A2K5UE71 27-274)
T2 construct: bought protein; also called monkey Trop2 protein antigen (His tag)
T2 sequence: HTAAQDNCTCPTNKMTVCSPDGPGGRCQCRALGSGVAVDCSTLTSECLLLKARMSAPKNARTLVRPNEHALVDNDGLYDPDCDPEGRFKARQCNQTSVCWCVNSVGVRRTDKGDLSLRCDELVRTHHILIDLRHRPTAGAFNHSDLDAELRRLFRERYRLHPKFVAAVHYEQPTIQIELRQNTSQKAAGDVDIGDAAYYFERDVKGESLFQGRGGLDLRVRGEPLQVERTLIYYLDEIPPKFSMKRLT

T3: human Trop2 on cells (human, UniProt P09758 27-323)
T3 construct: whole, on cells; also called hTrop2; 293T-human Trop2 cells
T3 sequence (looked up): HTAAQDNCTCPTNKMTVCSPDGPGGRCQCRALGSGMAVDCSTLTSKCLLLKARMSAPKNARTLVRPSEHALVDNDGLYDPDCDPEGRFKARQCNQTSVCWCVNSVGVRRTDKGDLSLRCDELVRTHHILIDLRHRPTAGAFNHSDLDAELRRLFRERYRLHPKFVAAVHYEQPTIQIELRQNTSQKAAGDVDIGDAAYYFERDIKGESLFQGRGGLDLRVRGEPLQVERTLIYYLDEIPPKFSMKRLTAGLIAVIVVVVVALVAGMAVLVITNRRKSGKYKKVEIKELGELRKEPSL


Key:
[1] = biological target: T1, human TROP2 protein (Sino Biological, …); assay: BLI, Octet RED96, AHC sensor
Procedure: (§1) Specifically, a human TROP2 protein (Sino Biological, #10428-H08H) or a monkey Trop2 protein (Sino Biological, #90893-C08H) was diluted to 200 nM with a PBS buffer (pH 7.4) containing 0.1% (w/w) BSA and 0.02% (v/v) tween 20, and incubated with the AHC sensor respectively. 40 nM Trop2 antibody was incubated at 30° C. for 3 min with the AHC sensor loaded with the human Trop2 protein or monkey Trop2 protein respectively. The reaction mixture was incubated at 30° C. for another 5 min in a PBS buffer (pH 7.4) containing 0.1% (v/w) BSA and 0.02% (v/v) Tween 20. The association and dissociation signals between the Trop2 antibody and the human Trop2 protein or monkey Trop2 protein were recorded by Octet Red 96 in real time. The affinity and the association and dissociation constants were determined by Octet using software.

[2] = biological target: T2, monkey Trop2 protein (Sino Biological, …); assay: BLI, Octet RED96, AHC sensor
Procedure: as §1

human Trop2 on cells = biological target: T3, human Trop2 on cells; assay: flow cytometry on 293T-human Trop2 cells
Procedure: The cell density was determined, and the cells were resuspended to 1×10⁶ cells/mL in PBS. 100 μL of cell suspension was taken from each well and added to a 96 well V-bottom plate. The 96-well V-bottom plate was centrifuged at 1000 rpm for 5 min and washed once with PBS+0.5% BSA (VWR, #0332-100G). […] After 1 h, the cells were washed twice with PBS+0.5% BSA. The cells were incubated with 100 μL of Alexa Fluor 488 goat anti-human IgG (Life technologies, 1:1000, #A-11013) at 4° C. for 1 h in the dark, and washed twice with PBS+0.5% BSA. The cells were resuspended in 200 μL of PBS+0.5% BSA. The fluorescence intensity of the cells was analyzed using a FACS verse flow cytometer. All procedures were performed on ice.

[3] = biological target: T2, monkey Trop2 protein (Sino Biological, …); assay: BLI, Octet RED96; ratio against KD for human Trop2 protein
Procedure: as §1

Binder | Kd [1] | Response [1] | koff [1] | kon [1] | Kd [2] | Response [2] | koff [2] | kon [2] | EC50 (human Trop2 on cells) | Maximum (MFI) (human Trop2 on cells) | Top % (human Trop2 on cells) | KD (monkey)/KD (human) [3] | fold lower KD than the reference antibody Tab (hRS7) [1]
PR001171 (antibody, human IgG1, kappa, V domains shown, fully human IgG1/kappa; also called antibody No. (30)) VH: QVQLVESGGGVVQPGRSLRLSCAASGFTFSHYGMHWVRQAPGKGLEWVAVIWYDGIKKNYVESVKGRFTISRDNSKNTLNLQMNRLRAEDTAVYYCARDGGFGESNYYGLDVWGQGTTVTVSS VL: DIQLTQSPSFLSASVGDRVTITCRASQGISSYLGWYQQKPGKAPKLLIYIASTLQSGVPSRFSGSGSGTEFTLTISSLQPEDFATYYCQQLNSYPYTFGQGTKLEIKR | 25.1 pM | 0.326 | 3.74e-06 s⁻¹ | 149000 M⁻¹ s⁻¹ | 151 pM | 0.319 | 1.34e-05 s⁻¹ | 88300 M⁻¹ s⁻¹ | 997 pM | 6600 MFI | 102% | 6.02 | 
PR001150 (antibody, human IgG1, kappa, V domains shown, fully human IgG1/kappa; also called antibody No. (13)) VH: QVQLVESGGGVVQPEKSLRLSCAASGFTFSHYGMHWVRQVPGKGLEWVAVIWYDGIKRYYVESVKGRFTISRDNSKNTLYLQMNRLRAEDTAVYYCARDGGFGESNYYGLDVWGQGTTVTVSS VL: DIQLTQSPSFLSASVGDRVTITCRASQGINSYLGWYQRKPGKAPKLLIYIASTLQSGVPSRFSGSGSGTEFTLTISSLQPEDFATYYCQQLNSYPYTFGQGTKLEIKR | 32.6 pM | 0.382 | 5.25e-06 s⁻¹ | 161000 M⁻¹ s⁻¹ | 319 pM | 0.344 | 3.41e-05 s⁻¹ | 107000 M⁻¹ s⁻¹ | 589 pM | 6570 MFI | 101% | 9.76 | ~10 fold
PR001151 (antibody, human IgG1, kappa, V domains shown, fully human IgG1/kappa; also called antibody No. (14)) VH: QVQLVESGGGVVQPGRSLRLSCAASGFTFSHYGMHWVRQAPGKGLEWVAVIWYDGIKKDYVESVKGRFTISRDNSKNTLYLQMNRLRAEDTAVYYCARDGGFGELNYYGLDVWGQGTTVTVSS VL: DIQLTQSPSFLSASVGDRVTITCRASQGISSYLGWYQQKPGKAPKLLIYVASTLQSGVPSRFSGSGSGTEFTLTISSLQPEDFATYYCQQLNSYPYTFGQGTKLEIKR | 1120 pM | 0.407 | 0.000127 s⁻¹ | 113000 M⁻¹ s⁻¹ | 2380 pM | 0.351 | 0.00018 s⁻¹ | 75800 M⁻¹ s⁻¹ | 1610 pM | 7510 MFI | 116% | 2.12 | 
PR001152 (antibody, human IgG1, kappa, V domains shown, fully human IgG1/kappa; also called antibody No. (15)) VH: QVQLVESGGAVVQPGRSLRLSCAASGFTFSHYGMHWVRQAPGKGLEWVAVIWYDGIKSYYVESVKGRFTISRDNSKNTLYLQMDRLRAEDTAVYYCARDGGFGESNYYGLDVWGQGTTVTVSS VL: DIQLTQSPSFLSASVGDRVTITCRASQGINSYLGWYQRKPGKAPKLLIYIASTLQSGVPSRFSGSGSGTEFTLTISSLQPEDFATYYCQQLNSYPYTFGQGTKLEIKR | 135 pM | 0.348 | 2.08e-05 s⁻¹ | 154000 M⁻¹ s⁻¹ | 1020 pM | 0.343 | 0.000105 s⁻¹ | 103000 M⁻¹ s⁻¹ | 1930 pM | 7180 MFI | 111% | 7.57 | 
PR001154 (antibody, human IgG1, kappa, V domains shown, fully human IgG1/kappa; also called antibody No. (17)) VH: QVQLVESGGGVVQPGRSLRLSCEASGFTFSHYGMHWVRQAPGKGLEWVAVIWYDGIKKYYIESVKGRFIISRDNSKNTLYLQMNRLRAEDTAVYYCARDGGFGELNYYGLDVWGQGTTVTVSS VL: DIQLTQSPSFLSASVGDRVTITCRASQGISSYLGWYQQKPGKAPKLLIYVASTLQSGVPSRFSGSGSGTEFTLTISSLQPEDFATYYCQQLNSYPYTFGQGTKLEIKR | 855 pM | 0.41 | 9.23e-05 s⁻¹ | 108000 M⁻¹ s⁻¹ | 1910 pM | 0.379 | 0.000139 s⁻¹ | 72700 M⁻¹ s⁻¹ | 2110 pM | 7470 MFI | 115% | 2.24 | 
PR001159 (antibody, human IgG1, kappa, V domains shown, fully human IgG1/kappa; also called antibody No. (21)) VH: QVQLVESGGGVVQPGRSLRLSCEASGFTFSHYGMHWVRQAPGKGLEWVAVIWYDGIKTNYVESVKGRFTISRDNSKNTLNLQMNRLRAEDTAVYYCARDGGFGESNYYGLDVWGQGTTVTVSS VL: DIQLTQSPSFLSASVGDRVTITCRASQGISSYLGWYQQKPGKAPKLLIYIASTLQSGVPSRFSGSGSGTEFTLTISSLQPEDFATYYCQQLNSYPYTFGQGTKLEIKR | < 1 pM | 0.38 | < 1e-07 s⁻¹ | 176000 M⁻¹ s⁻¹ | 307 pM | 0.372 | 3.39e-05 s⁻¹ | 111000 M⁻¹ s⁻¹ | 977 pM | 6790 MFI | 105% |  | ~10 fold
PR001170 (antibody, human IgG1, kappa, V domains shown, fully human IgG1/kappa; also called antibody No. (29)) VH: QVQLQESGPGLVKPSETLSLTCAVSGYSINSGYFWAWIRQPPGMGLEWIGSIYHSGRTHYNPSLKSRVIISLDTSKNQFSLKLRSVTAADSAVYYCAREGYASGSYYWGQGTLVTVSS VL: EIVMTQSPATLSVSPGERATLSCRSSQSVNSYLAWFQQKPGQAPRLLIYDSSTRATGIPARFSGSGSGTEFTLTISSLQSEDFAFYFCQQYENWPLTFGGGTKVEIKR | < 1 pM | 0.368 | < 1e-07 s⁻¹ | 476000 M⁻¹ s⁻¹ | < 1 pM | 0.387 | < 1e-07 s⁻¹ | 307000 M⁻¹ s⁻¹ | 352 pM | 6960 MFI | 107% |  | 
PR001132 (antibody, human IgG1, kappa, V domains shown, fully human IgG1/kappa; also called antibody No. (4)) VH: QVELVESGGGVVQPGRSLRLSCGASGFTFSSYNMYWVRQAPGKGLEWVAGIWDDGNNKYYANSVKGRFTISRDNSKNTLYLQMNSLRTEDTALYYCAKDGWGSYGEYFQHWGQGTLVTVSS VL: DIQMTQSPSSLSASVGERVTITCRASQNINSYLSWYQQKPGKAPKLLIYAASSLQNGVPSRFSGSGSGTDFTLTISSLQPEDFATYYCQQSFSTPPITFGQGTRLEIKR | < 1 pM | 0.417 | < 1e-07 s⁻¹ | 121000 M⁻¹ s⁻¹ | 164 pM | 0.418 | 1.43e-05 s⁻¹ | 86900 M⁻¹ s⁻¹ | 441 pM | 6920 MFI | 107% |  | ~10 fold
PR001138 (antibody, human IgG1, kappa, V domains shown, fully human IgG1/kappa; also called antibody No. (7)) VH: QVQLQESGPRLVKPSETLSLTCAVSGYSISSGYYWGWIRQSPGMGLEWIAYIYHDGSTYCNPSLKSRVTMSVDTSKNQFSLKLRSVTAADTAVYYCARDGAAAPFDYWGQGTLVTVSS VL: DIQMTQSPSTLSASVGDRVTITCRASQSISNWLAWYQQKPGKAPKVLIYKASSLESGVPSRFSGSGSGTEFTLTINSLQPDDFATYYCQQYDSYSITFGQGTRLEIKR | < 1 pM | 0.338 | < 1e-07 s⁻¹ | 148000 M⁻¹ s⁻¹ | 409 pM | 0.329 | 3.98e-05 s⁻¹ | 97400 M⁻¹ s⁻¹ | 478 pM | 6730 MFI | 104% |  | ~10 fold
